Assay results taken from PMC7069705 (Science Advances, 2019).

B3: KAP3 (separately purified) (natural protein, mouse, UniProt P70188-1 1-793, looked up)
chain: MQGEDARYLKRKVKGGNIDVHPSEKALIVQYEVEATILGEMGDPMLGERKECQKIIRLKSLNANTDITSLARKVVEECKLIHPSKLSEVEQLLYYLQNRRDSLPGKEKKEKSSKPKDPPPFEGMEIDEVANINDMDEYIELLYEDIPDKVRGSALILQLARNPDNLEELLLNETALGALARVLREDWKQSVELATNIIYIFFCFSSFSHFHGLITHYKIGALCMNIIDHELKRHELWQEELSKKKKAVDEDLENQTLRKDYDKTFKKYQGLVVKQEQLLRVALYLLLNLAEDTRTELKMRNKNIVHMLVKALDRDNFELLILVVSFLKKLSIFMENKNDMVEMDIVEKLVKMIPCEHEDLLNITLRLLLNLSFDTGLRNKMVQVGLLPKLTALLGNENYKQIAMCVLYHISMDDRFKSMFAYTDCIPQLMKMLFECSDERIDLELISFCINLAANKRNVQLICEGNGLKMLMKRALKLKDPLLMKMIRNISQHDGPTKNLFIDYVGDLAAQISSDEEEEFVIECLGTLANLTIPDLDWELVLKEYKLVPFLKDKLKPGAAEDDLVLEVVIMIGTVSMDDSCAALLAKSGIIPALIELLNAQQEDDEFVCQIIYVFYQMVFHQATRDVIIKETQAPAYLIDLMHDKNNEIRKVCDNTLDIIAEYDEEWAKKIQSEKFRWHNSQWLEMVESRQLDESEQYLYGDDRIEPYIHEGDILERPDLFYNSDGLITSEGAISPDFFNDFHLQNGDVVGQHAFPGSLGMDGFGQPLGILGRPATAYGFRPDEPYYYSFGSR

Columns and labels:
[1] = target: the molecule itself; assay: single-molecule photobleaching step analysis
[2] = target: B3; assay: SEC-MALS
[3] = target: the molecule itself; assay: SEC-MALS
[4] = target: full-length APC–green fluorescent protein (GFP) (mouse, UniProt Q61315 1-2845); assay: MST
Sequence of full-length APC–green fluorescent protein (GFP) (Q61315 whole entry): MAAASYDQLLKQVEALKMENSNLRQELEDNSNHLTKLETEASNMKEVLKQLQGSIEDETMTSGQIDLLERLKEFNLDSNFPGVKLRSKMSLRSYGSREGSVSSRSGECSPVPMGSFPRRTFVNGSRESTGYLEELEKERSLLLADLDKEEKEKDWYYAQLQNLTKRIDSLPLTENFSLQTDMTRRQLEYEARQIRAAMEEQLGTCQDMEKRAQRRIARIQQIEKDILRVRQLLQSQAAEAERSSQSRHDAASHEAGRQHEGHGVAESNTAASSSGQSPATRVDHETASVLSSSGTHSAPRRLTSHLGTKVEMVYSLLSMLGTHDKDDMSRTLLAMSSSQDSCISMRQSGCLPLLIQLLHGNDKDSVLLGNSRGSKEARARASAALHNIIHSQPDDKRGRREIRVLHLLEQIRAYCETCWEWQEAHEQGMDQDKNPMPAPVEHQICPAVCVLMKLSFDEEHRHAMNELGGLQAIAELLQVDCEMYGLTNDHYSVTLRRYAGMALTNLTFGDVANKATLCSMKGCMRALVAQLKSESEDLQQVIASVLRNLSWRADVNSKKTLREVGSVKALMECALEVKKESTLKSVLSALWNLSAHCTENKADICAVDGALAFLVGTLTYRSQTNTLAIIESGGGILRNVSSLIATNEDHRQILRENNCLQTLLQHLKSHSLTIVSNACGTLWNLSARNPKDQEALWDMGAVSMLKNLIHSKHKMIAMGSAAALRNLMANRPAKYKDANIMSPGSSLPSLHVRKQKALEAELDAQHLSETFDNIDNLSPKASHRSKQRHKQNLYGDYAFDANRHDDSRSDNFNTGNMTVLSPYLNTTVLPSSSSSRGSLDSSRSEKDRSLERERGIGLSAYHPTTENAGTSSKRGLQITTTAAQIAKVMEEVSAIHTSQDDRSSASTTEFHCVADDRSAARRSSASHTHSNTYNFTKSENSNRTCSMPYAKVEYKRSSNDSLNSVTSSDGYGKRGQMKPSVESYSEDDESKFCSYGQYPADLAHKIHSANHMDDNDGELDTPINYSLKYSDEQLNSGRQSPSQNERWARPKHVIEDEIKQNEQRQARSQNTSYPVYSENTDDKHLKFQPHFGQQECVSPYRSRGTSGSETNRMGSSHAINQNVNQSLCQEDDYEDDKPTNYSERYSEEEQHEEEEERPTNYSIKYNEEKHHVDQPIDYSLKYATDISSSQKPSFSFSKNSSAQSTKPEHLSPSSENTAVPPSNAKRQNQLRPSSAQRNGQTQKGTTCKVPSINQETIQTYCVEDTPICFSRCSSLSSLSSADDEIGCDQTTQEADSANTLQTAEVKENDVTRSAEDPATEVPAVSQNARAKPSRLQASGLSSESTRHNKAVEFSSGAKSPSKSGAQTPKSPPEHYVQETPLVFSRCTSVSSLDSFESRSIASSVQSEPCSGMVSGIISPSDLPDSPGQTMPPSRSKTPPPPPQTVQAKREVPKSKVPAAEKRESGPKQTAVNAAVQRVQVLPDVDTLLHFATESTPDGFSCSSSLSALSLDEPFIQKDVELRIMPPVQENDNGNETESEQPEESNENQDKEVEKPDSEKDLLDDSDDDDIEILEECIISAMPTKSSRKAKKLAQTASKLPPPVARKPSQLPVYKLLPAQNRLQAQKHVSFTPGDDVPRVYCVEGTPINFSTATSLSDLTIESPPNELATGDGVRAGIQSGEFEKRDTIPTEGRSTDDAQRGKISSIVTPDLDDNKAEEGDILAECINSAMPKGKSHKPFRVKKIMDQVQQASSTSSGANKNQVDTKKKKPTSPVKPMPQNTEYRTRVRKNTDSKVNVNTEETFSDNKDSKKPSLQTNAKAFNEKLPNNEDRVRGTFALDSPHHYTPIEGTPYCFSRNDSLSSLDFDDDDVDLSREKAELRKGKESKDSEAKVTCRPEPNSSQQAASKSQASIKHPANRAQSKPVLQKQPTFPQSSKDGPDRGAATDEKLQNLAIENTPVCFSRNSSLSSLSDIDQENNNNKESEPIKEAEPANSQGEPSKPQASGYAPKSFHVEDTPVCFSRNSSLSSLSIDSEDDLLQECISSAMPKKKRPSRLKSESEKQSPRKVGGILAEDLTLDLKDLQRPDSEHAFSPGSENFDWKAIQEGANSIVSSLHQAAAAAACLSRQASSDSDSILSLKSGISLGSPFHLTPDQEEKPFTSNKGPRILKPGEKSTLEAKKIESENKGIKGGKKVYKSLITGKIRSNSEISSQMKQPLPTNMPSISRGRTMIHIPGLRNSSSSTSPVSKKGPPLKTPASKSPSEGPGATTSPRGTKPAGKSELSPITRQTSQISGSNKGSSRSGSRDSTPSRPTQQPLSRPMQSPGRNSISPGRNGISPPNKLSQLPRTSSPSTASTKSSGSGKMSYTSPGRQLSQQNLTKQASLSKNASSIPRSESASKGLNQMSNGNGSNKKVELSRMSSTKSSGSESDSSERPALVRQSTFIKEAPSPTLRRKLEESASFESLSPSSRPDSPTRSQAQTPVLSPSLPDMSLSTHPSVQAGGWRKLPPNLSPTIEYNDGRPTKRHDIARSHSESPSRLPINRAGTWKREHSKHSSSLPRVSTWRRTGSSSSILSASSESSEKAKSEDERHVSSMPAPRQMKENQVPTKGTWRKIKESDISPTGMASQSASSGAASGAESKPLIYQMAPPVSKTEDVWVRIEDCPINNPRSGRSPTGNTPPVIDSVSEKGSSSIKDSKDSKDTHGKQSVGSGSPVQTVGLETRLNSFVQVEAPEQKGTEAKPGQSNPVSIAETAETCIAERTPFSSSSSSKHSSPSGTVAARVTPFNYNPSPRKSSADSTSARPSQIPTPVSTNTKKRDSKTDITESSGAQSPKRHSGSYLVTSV

B1: homodimeric SNAP-KIF3A labeled with Alexa647 or TMR (natural protein, mouse, UniProt P28741 1-701, looked up)
chain: MPINKSEKPESCDNVKVVVRCRPLNEREKSMCYRQAVSVDEMRGTITVHKTDSSNEPPKTFTFDTVFGPESKQLDVYNLTARPIIDSVLEGYNGTIFAYGQTGTGKTFTMEGVRAVPGLRGVIPNSFAHIFGHIAKAEGDTRFLVRVSYLEIYNEEVRDLLGKDQTQRLEVKERPDVGVYIKDLSAYVVNNADDMDRIMTLGHKNRSVGATNMNEHSSRSHAIFTITIECSEKGVDGNMHVRMGKLHLVDLAGSERQAKTGATGQRLKEATKINLSLSTLGNVISALVDGKSTHVPYRNSKLTRLLQDSLGGNSKTMMCANIGPADYNYDETISTLRYANRAKNIKNKARINEDPKDALLRQFQKEIEELKKKLEEGEEVSGSDISGSEEDDEEGELGEDGEKKKKRRDQAGKKKVSPDKMVEMQAKIDEERKALETKLDMEEEERNKARAELERREKDLLKAQQEHQSLLEKLSALEKKVIVGGVDLLAKAEEQEKLLEESNMELEERRRRAEQLRKELEEKEQERLDIEEKYTSLQEEAQGKTKKLKKVWTMLMAAKSEMADLQQEHQREIEGLLENIRQLSRELRLQMLIIDNFIPQDYQEMIENYVHWNEDIGEWQLKCVAYTGNNMRKQTPVPDKKERDPFEVDLSHVYLAYTEESLRQSLMKLERPRTSKGKARPKMGRRKRSAKPETVIDSLLQ
modifications: Alexa647 or TMR dye on the SNAP tag
- stoichiometry N [1]: 2

B2: KIF3A (homodimer, separately purified) (natural protein, mouse, UniProt P28741 1-701, looked up)
chain: MPINKSEKPESCDNVKVVVRCRPLNEREKSMCYRQAVSVDEMRGTITVHKTDSSNEPPKTFTFDTVFGPESKQLDVYNLTARPIIDSVLEGYNGTIFAYGQTGTGKTFTMEGVRAVPGLRGVIPNSFAHIFGHIAKAEGDTRFLVRVSYLEIYNEEVRDLLGKDQTQRLEVKERPDVGVYIKDLSAYVVNNADDMDRIMTLGHKNRSVGATNMNEHSSRSHAIFTITIECSEKGVDGNMHVRMGKLHLVDLAGSERQAKTGATGQRLKEATKINLSLSTLGNVISALVDGKSTHVPYRNSKLTRLLQDSLGGNSKTMMCANIGPADYNYDETISTLRYANRAKNIKNKARINEDPKDALLRQFQKEIEELKKKLEEGEEVSGSDISGSEEDDEEGELGEDGEKKKKRRDQAGKKKVSPDKMVEMQAKIDEERKALETKLDMEEEERNKARAELERREKDLLKAQQEHQSLLEKLSALEKKVIVGGVDLLAKAEEQEKLLEESNMELEERRRRAEQLRKELEEKEQERLDIEEKYTSLQEEAQGKTKKLKKVWTMLMAAKSEMADLQQEHQREIEGLLENIRQLSRELRLQMLIIDNFIPQDYQEMIENYVHWNEDIGEWQLKCVAYTGNNMRKQTPVPDKKERDPFEVDLSHVYLAYTEESLRQSLMKLERPRTSKGKARPKMGRRKRSAKPETVIDSLLQ
- binding result [2]: binds
- stoichiometry N [3]: 2

Binder: B3
- binding result [4]: binds
